The source of these data is the DeepSol protein solubility set.

The data set is described as follows: soluble on expression in E. coli; label from the status in PepcDB or PDB records.
Regarding “MGSDKIHHHHHHMKILITGATGFVGRNLVPYLFSHGFVELAIAVRDPQKAISMFESIPLTYISCERTFRQQIIDFAPEVVIHLATNFNFHSDEKSVRDIVDANILFGSLLLEAVSYTPCKFFINLGTFAEYYYNDGNFLPNTFYAATKTAFRSIIQYYQLKGDFKWINLIGYTIYGKKNDSKKIIDYLIDALNSPIPLNFTKGEQINDFIHINDVSDFFYVLLSNLNLLEDTMYTQLYLGTGKGTSIRELSYIIETVYKQKVNANWGGLSYRPYDIMYAVAPISRNLDLLKWKTKISLEEGIKMLRYE”, the “soluble on expression in E. coli” value is reported as “not soluble”.
“MSLEIIPVIDLMNGLAVSGKSGNRKEYVPIKSVLCDSSDPHDVIKKYNENGAKKVYIADLNSIMGTGNNFEIVKSLDIFKIVDFGVTDKKDLENVKKCVNMTILGTETLNDISILKEGNIILSLDFKDGKLLNYDLDDILSKVDKKTPLIILDISSVGTQKGINVELIKDILKKTDNPIYIGGGIKSEDDLKISKELGISGVLIGTTIHNGKLDLKKIIQKYGEGHHHHHH”: the “soluble on expression in E. coli” value was “soluble”.
The result for “MAHHHHHHMSNELLQGAALYKELLCVYHNLAESELGLSGGDVGALFQIKENLSQPISCDIQKCKEILTKLKLVLIHLPSVDPLVPIGKKNINELLLARHILEKGVIISILDRDIKAFSIYMAQLLLYYFDYCNFLPKSGNQNGIIGMYLLYLLSSNLIGDFHMTLEVISIEDQSDEYIKYALELEQHIMDGYFHHVLTKKENIPLYLYSLFIERLYNTIRHKLADCLFASSNCISSEYACELLKLGSEQELCQFIGEYNEAKTSQGECNLLWEVRNKKIYFNNQTVHVQDLPALEVLNNTIGYATELERIV” reads “not soluble”; that for “MKVALGGTFEPLHEGHKKLIDVAIKLGGRDITIGVTSDRMARARIRSVLPFAIRAENVKRYVMRKYGFEPEIVKITNPYGKTLDVDFEYLVVSPETYEMALKINQKREELGKRKITIVKVDWMMAEDGKPISSTRIKRGEIDRYGGII”, “soluble”; that for “MDWFSWLSRTNLEASLIYEYGLSFSNNELEYEDIAYFNHEFLQSMGISIAKHRLEILKLARRDRKPSPLTARSIFRVLIAIKKTGKCFSEHVRAWIRREESSRALVVVSRSTSSSGNGRWKSARKKRLVMPSNGNGVKEERLLLTNGTPCRLDSFSNPKVSSGYEDDDNHWGNKDVEEKIKWDSMFQNLKPT”, “soluble”.
In the case of “MGSDKIHHHHHHAQRIEELPAVPLQIGYEKTLHLIFPTEVKYYSIGGDYVIGEKVGNCPEIIRLKAAEENFPGETTLSVVTADTKFYSYAISYNAHPVESYVRVDGQAPAPHTLPVGKDRQMFLIFPAGITYVDYGSTNVEVEKAEGVDNILAVKATGEFTEDTNISAVVEGGKFYTFNLHYAPFPERFSFVIDKEKTQRVAILDERERSSEQKERIRQAISKRIPLDLGLKDKNAGMEFEVGNIFIDGDILLLRMTLTNRTQIGYTTDFMRFYIQDAKIHKKTAVQQIEQNILFAFDYPEEIPAHESRTFTVAMNKFTIPDKKRLIIEIQERNGGRHFLYKLKNKSLLGAEEVFRSLQEQKTEDEADRILRRISR” it was “not soluble”; in that of “MALVNSILKANEYSFKVPEFDGKNVSSILGFDSNQLPANAPIEDRRSAATCLQTRGMLLGVFDGHAGCACSQAVSERLFYYIAVSLLPHETLLEIENAVESGRALLPILQWHKHPNDYFSKEASKLYFNSLRTYWQELIDLNTGESTDIDVKEALINAFKRLDNDISLEAQVGDPNSFLNYLVLRVAFSGATACVAHVDGVDLHVANTGDSRAMLGVQEEDGSWSAVTLSNDHNAQNERELERLKLEHPKSEAKSVVKQDRLLGLLMPFRAFGDVKFKWSIDLQKRVIESGPDQLNDNEYTKFIPPNYHTPPYLTAEPEVTYHRLRPQDKFLVLATDGLWETMHRQDVVRIVGEYLTGMHHQQPIAVGGYKVTLGQMHGLLTERRTKMSSVFEDQNAATHLIRHAVGNNEFGTVDHERLSKMLSLPEELARMYRDDITIIVVQFNSEGHHHHHH”, “soluble”; in that of “MFPEILNNEKLRLENIKKIYESSKSGYESAKQLYEQQVNNPEVSDEQKSENLEKLKESRGDLDNLQKKIVELQAKIENLSKLGGQQGNPFKKLF”, “not soluble”.
The result for “MGNICIGGPRMSQQVYSPERADTPQRNALREQTEADIEQNSESMRLQQKIDDLKPYVSNATGPMKAYGQAAMDRASGKKTYVSFAELDAEHLDAMVDVENQRNPDLNLRYFKHHKEFIQALESDGPSSFRAIYPLTKPRTGQAAKHHVMADVRLTPCEPPSIVITEPGVIVGKRNKQLHRHNQTLEDLSESGVQLSQVAIIETQAQKTPDDCVMYCLNYAIKAHKNADKFDDIHHGLQRGTFVNRINGRRVQDADHCGHF” reads “not soluble”; that for “MVATAKYGTPVIDGEIDEIWNTTEEIETKAVAMGSLDKNATAKVRVLWDENYLYVLAIVKDPVLNKDNSNPWEQDSVEIFIDENNHKTGYYEDDDAQFRVNYMNEQTFGTGGSPARFKTAVKLIEGGYIVEAAIKWKTIKPTPNTVIGFNIQVNDANEKGQRVGIISWSDPTNNSWRDPSKFGNLRLIK”, “soluble”.
On to “MGKQLAKKITWAIENFSSLHSKKIYSDPFIVGGCKWRFLVYPKGNNVDYLFLYLEVADYESLSPEWRRHARYLLNVVNQNSVKRSKQNEEQKWFDVQSPRWGRLSMFPLNEINAKDSGFLVNGELKIVAEIEVLEVIGKLDVSEETSTIMESMDFNGFQLLPSQVDFVRHMFEKHPEIASEFRLKNPNLRAGYMSLLLSLIETLRQSPQELNKVDLAEGYVALRSITDAGFKVDWLEKKLVEISEKKNKEEAGETRMQEINEELESLKQKCLDLEAQLEKEKAEVFAAKSPLSFNDVF”, for which the “soluble on expression in E. coli” value is “not soluble”.
The result for “MGSDKIHHHHHHMETCRQEVTMDKVFIISQKAEQQADAIETGIALARVLEKEAEVFAYSYESFAGKEYYNPRLGAAAKVALMNQRSEEIAAKLKALKAEDVAVHSVWTKDLFEHACHHSIRHGFDLMVKAVHHKTHYLPMDWQLIRHVRIPLMMLCDNPLQRARSVLMAVDLGSDNPIKQKLNQCVIQQGRQLAEAMDCQLHLAYIIRVPKILRDMDLIDTRTLVKDAYHRYQPQLDEIDLHQEHVHFLAGDPDLCLYELSCRLKAAYLVMGARQRKGLMGMVIGNTAEAMLTRIRSNVLIIPADDQLLPA” reads “not soluble”.
In the case of “GPGSMTDCWYIPEAVADRRDENRLSPNVPASYEVLGEAGIFYRHFDSEEVNDNIEGFIQPLLKKLNYQSYDVVNLSPANLGAEKFETLAEQHFMEHIHEDDEVRLILEGQGYFDVRDINDKWIRLLLKPGDCIVVPAGMYHRFTTDQSKCIKTLRIFKEAPQWIALNRGPEAEEKPARKEYLARLHAPAETAVGAVNGRTIFSLRYPLKLDAELTVITKRLLEQHSKQPLALAIYLTGSTDPTTGESWCPDCVLAKLHVARRFAELQGTYGKEHAIFLQLPVERASYLGNPNFFYRTHPILQLASVPTLLVLSPAKDAKEGGDVQWYDLLDVKVRTCDVDRTDVLNLE” it was “soluble”.
The result for “GMARKRLIIEMGMGIDQHGQEPTIAASRAVRNAIAHNALPGVWEVAGLSHPNEMIIEVQVAVPYPEQVREEEVLAVLPFGRKTLTVESGGMIVQGRAIPELNDKNDEMLIAIAAVTVLIENE” reads “soluble”; that for “MAQEVIKIRGGRTLNGEVNISGAKNSAVAIIPATLLAQGHVKLEGLPQISDVKTLVSLLEDLNIKASLNGTELEVDTTEIQNAALPNNKVESLRASYYMMGAMLGRFKKCVIGLPGGCPLGPRPIDQHIKGFKALGAEIDESSTTSMKIEAKELKGAHIFLDMVSVGATINIMLAAVYATGQTVIENAAKEPEVVDVANFLTSMGANIKGAGTSTIKINGVKELHGSEYQVIPDRIEAGTYMCIAAACGENVILNNIVPKHVETLTAKFSELGVNVDVRDERIRINNNAPYQFVDIKTLVYPGFATDLQQPITPLLFMANGPSFVTDTIYPERFKHVEELKRMGANIEVDEGTATIKPSTLHGAEVYASDLRAGACLIIAGLIAEGVTTIYNVKHIYRGYTDIVEHLKALGADIWTETV”, “not soluble”; that for “MGSDKIHHHHHHMEIHMNPWLNAVAQVEALEDLVLNADLVDSMRERWSGLSGSQVGRINFYTPSFKHHETSEVSACGKNAFPAISITGGDCKLQCDHCKAKILEPMIPVRTPEELDRLVDRIVLDGGRGLLLSGGSDHQNVVHYEPYFPTVRKIKDRYPNLQIAMHTGIATPEFARGMEDAGVDVAMMDVIGAQDTINQVYHLRRSVDDFEAALEALVATRMKVVPHIVIGLHYGELLGEWNALEIIQRHLPSALVLVVIMPQYAASSRPFATPAADEIGKFFMDARAALPETPVLLGCARPSGVHRSITDTYAVMAGLNGVAFPSDGMLALAKHLERDVFVTPSCCSMIVGEEVLALGDETTTVPLDYVPAAPKRRPQLRDIPIVFTA”, “not soluble”.
For the sequence “GMASEFDLIQRYFRRAHPSAVLGVGDDAALIQPSPGMELAVSADMLVANTHFYPNIDPWLIGWKSLAVNISDMAAMGAQPRWATLTIALPEADEDWISKFAAGFFACAAQFDIALIGGDTTRGPLTISVQIMGETPPGASLLRSTARADDDIWVSGPLGDAALALAAIQGRYPLSDTELAACGKALHQPQPRVVLGQALRGLAHSALDISDGLLADLGHILEHSQVGAEVWLKAIPKSEVVSAHSQEVAIQKMILSGGDDYELCFTASTQHRQQIADIGRQLSLDMAVIGRITDTQQLVIHGLDDAPLTLKEHGFDHFA”, the “soluble on expression in E. coli” value is listed as “soluble”.
On to “MGSDKIHHHHHHMFKSTDNYIASNELTLAVNAAIALEKPLLIKGEPGTGKTQLAEELARSLNCKLYQWHIKSTTKAQQGLYEYDAVSRLRDSQLGDARVHDIGNYIVKGKLWQAFEEDQRSILLIDEIDKADIEFPNDLLQELDKMEFYVYETQQVIKAKQRPIIIITSNNEKELPDAFLRRCFFHYIKFPTKDEMAKIIDVHHPNVKQDLLQQALEVFFDLRDVNGIKKKPSTSELIDWLKLLISDDISQDTLLDKKSDIIPLFGALLKNEQDVSLIEKLAFMSRRNR”, for which the “soluble on expression in E. coli” value is on record as “not soluble”.
Regarding “MGSDKIHHHHHHACSQKQPIQATVTPSDPVVGEEIFFSDSTSGARIWYWEFGNNETSTQRSGYHRFKQKGVYKIRLTVNGNLERYFDVRVKEKTNAEDLHLVHIIAPKEAIQGENIIFRGEGHDEQWRWEFGETGMIDSREKTALYAYTEPGEYEVLLNTENTRYPIRHRINILPYYSENDSTDVMVLIGLDIKEKLQNIADGKPFNVNYNYVVDKYFNNNPNTLVIVNNNKYNDFYSYCQGLHHIGRKETIIQNVIVETEDEESGYITQITVMQIEKKK”, the “soluble on expression in E. coli” value was “not soluble”.
In the case of “MAGDPMLKGRQTWEFENRPVILSSAATAGPFEANGPLADDFDILFEDMWLGEDSFEKAQKVLIEEAAKTAIEKAGIQNDDIQFVFAGDLLNQMTSTSFACRSLCIPYFGLFGACSTSMEGLALAAFVINHSGANYVLTGSTSHNAAIEKQFRYPTEYGAQKPPTAQWTATAAGVGVVAKVGSGPVVTSATIGKVVDMGLSDPFNMGEAMAPAAADTIEMHFQERGVGPDYYDLIATGDLGKIGLPIVKEMLEQKGYSFNDGQLNDCGLMIYRDGQPVLAGGSGSGCSASVTYGHLLNRMKKGEINRMLIVATGALLSPMSYQQNETIPCIAHAVSIEAGGALALEHHHHHH” it was “not soluble”.
Take “MHSLQNVIPQQQAHIAELQVYNNKLERDLQNKIGSLTSSIEWYLRSMELDPEIKADIEQQINSIDAINPLHAFDDLESVIRNLISDYDKLFLMFKGLIQRSNYQYSFGSE”: the “soluble on expression in E. coli” value was “soluble”.
For the sequence “MSSTIKAIAVLKGDSPVQGVITFTQESSGGPVTVSGEIKNMDANAQRGFHVHQFGDNSNGCTSAGPHFNPTGTNHGDRTAEVRHVGDLGNVKTDASGVAKVQISDSQLSLVGPHSIIGRTIVIHAGEDDLGKTDHPESLKTGNAGARSACGVIGIAAAAALEHHHHHH”, the “soluble on expression in E. coli” value is given as “soluble”.
